We go through 1 molecule from paper PMC7116145.

In general, Kd refers to the concentration at which binding is half-saturated. A higher Kd goes with a looser complex.

For the test, the target named is CPTX, biotinylated on a C-terminal Avitag (immobilised in SPR) (UniProt P23435). Kind of test: SPR.

B1: mouse glutamate receptor A4 amino-terminal domain (domain or fragment)
chain: GAFPSSVQIGGLFIRNTDQEYTAFRLAIFLHNTSPNASEAPFNLVPHVDNIETANSFAVTNAFCSQYSRGVFAIFGLYDKRSVHTLTSFCSALHISLITPSFPTEGESQFVLQLRPSLRGALLSLLDHYEWNCFVFLYDTDRGYSILQAIMEKAGQNGWHVSAICVENFNDVSYRQLLEELDRRQEKKFVIDCEIERLQNILEQIVSVGKHVKGYHYIIANLGFKDISLERFIHGGANVTGFQLVDFNTPMVTKLMDRWKKLDQREYPGSETPPKYTSALTYDGVLVMAETFRSLRRQKIDISRRGNAGDCLANPAAPWGQGIDMERTLKQVRIQGLTGNVQFDHYGRRVNYTMDVFELKSTGPRKVGYWNDMDKLVLIQDAPTLGNDTAAIENRTVVVT
In turn, B1 showed a Kd of 4.5 µM.
